Measured values: patent publication US20160185837A1 (Medimmune Limited, priority 2013, published 2016)

Molecular target: T1, human glucagon receptor (GCGr) (Homo sapiens, UniProt P47871)
T1 construct: expressed in transfected cells; host or cells: HEK293s or CHO cells
Test: BSA-cAMP assay, cells expressing human glucagon receptor
Type: cell-based
Settings: Batch 1, read-out: hGCGr cAMP activity EC50

T1 sequence (P47871 26-477): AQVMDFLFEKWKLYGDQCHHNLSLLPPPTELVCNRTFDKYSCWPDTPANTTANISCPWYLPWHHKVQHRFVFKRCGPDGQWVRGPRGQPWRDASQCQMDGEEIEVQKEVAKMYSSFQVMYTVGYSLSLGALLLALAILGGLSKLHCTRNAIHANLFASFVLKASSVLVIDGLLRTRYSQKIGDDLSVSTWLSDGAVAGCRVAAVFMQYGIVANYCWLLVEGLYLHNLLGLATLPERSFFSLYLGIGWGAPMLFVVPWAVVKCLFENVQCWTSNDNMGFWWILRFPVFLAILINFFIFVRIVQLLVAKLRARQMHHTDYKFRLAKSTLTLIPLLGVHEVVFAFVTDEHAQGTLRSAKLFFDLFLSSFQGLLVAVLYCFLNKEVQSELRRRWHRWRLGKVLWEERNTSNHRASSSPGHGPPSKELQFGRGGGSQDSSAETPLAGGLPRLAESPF

B1: IP367 (protein)
chain: YSEGTFTSDYRILKERQAIDEFIAWLLKGGAAAGGSGSTASSGSGSATGGGGAATHTCPPC
EC50: > 1300 nM
